Changes are numbered by the printed parent chain.
Experiments:
Settings in all cases: protein: recombinant; tags: N-terminal 6xHis; chain copies: 4; blunt
6xHis-SlmA-F65A = biological target: T1, 6xHis-SlmA-F65A (Escherichia coli, UniProt P0C093 1-198, F65A); assay: BLI; 4 uM SlmA; binds like WT; BLI in 1x Pol buffer: 50 mM HEPES-NaOH pH 8.0, 200 mM KCl, 10 mM MgCl2, room temperature; 50 nM biotinylated SBS17 on streptavidin tips
T1 sequence: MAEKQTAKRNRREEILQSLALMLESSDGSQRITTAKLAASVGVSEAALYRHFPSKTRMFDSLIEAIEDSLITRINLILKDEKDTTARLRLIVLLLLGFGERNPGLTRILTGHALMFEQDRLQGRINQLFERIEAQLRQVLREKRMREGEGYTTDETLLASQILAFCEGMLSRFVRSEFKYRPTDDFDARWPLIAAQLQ

6xHis-SlmA-R73D = biological target: T2, 6xHis-SlmA-R73D (Escherichia coli, UniProt P0C093 1-198, R73D); assay: as above
T2 sequence: T1 sequence with A65F, R73D

6xHis-SlmA WT = biological target: T3, 6xHis-SlmA WT (Escherichia coli, UniProt P0C093 1-198); assay: BLI; kon 3.24e4 1/(M*s), koff 2.04e-3 1/s, R2 0.98; BLI in 1x Pol buffer: 50 mM HEPES-NaOH pH 8.0, 200 mM KCl, 10 mM MgCl2, room temperature; 50 nM biotinylated SBS17 on streptavidin tips
T3 sequence: T1 sequence with A65F

6xHis-SlmA-T33A = biological target: T4, 6xHis-SlmA-T33A (Escherichia coli, UniProt P0C093 1-198, T33A); assay: BLI; 4 uM SlmA; BLI in 1x Pol buffer: 50 mM HEPES-NaOH pH 8.0, 200 mM KCl, 10 mM MgCl2, room temperature; 50 nM biotinylated SBS17 on streptavidin tips
T4 sequence: T1 sequence with T33A, A65F

B1: biotinylated SBS17-30mer (dsDNA)
DNA 1: CAAAAGTAAGTAAATGGTCACTAACGTTGA
DNA 2: TCAACGTTAGTGACCATTTACTTACTTTTG
6xHis-SlmA-F65A
  binding result: binds
6xHis-SlmA-R73D
  binding result: binds
6xHis-SlmA WT
  Kd: 62.9 nM
6xHis-SlmA-T33A
  binding result: no binding

— article PMC4117426, “SlmA Antagonism of FtsZ Assembly Employs a Two-pronged Mechanism like MinCD”
